Assay results taken from patent US20210032312A1 (Janssen / Centocor, published 2021).
Substitutions are numbered along the chain they refer to.

B1: P282DR9P1359_F2 (designed binder)
chain: LPAPKNLVVSRVTEDSARLSWTAPDAAFDSFNIAYPEALHPGYGEAIVLTVPGSERSYDLTGLKPGTEYWVIIGGVKGGQKSWPLSAIFTTGGHHHDHH
notes: FN3 domain
B2: P282DR9P1359_A7 (designed binder)
chain: LPAPKNLVVSRVTEDSARLSWTAPDAAFDSFRIGYPELEKLGYGEAIVLTVPGSERSYDLTGLKPGTEYWVIIWGVKGGENSWPLSAIFTT
notes: FN3 domain
B3: P282DR9P1359_B2 (designed binder)
chain: LPAPKNLVVSRVTEDSARLSWTAPDAAFDSFWIAYTEWPIPYEEAGQEGEAIVLTVPGSERSYDLTGLKPGTEYWVSIYGVKGGPNSQPLSAIFTT
notes: FN3 domain
B4: P282CR9P1358_F5 (designed binder)
chain: LPAPKNLVVSRVTEDSARLSWTAPDAAFDSFWISYPEWPPDGEAIVLTVPGSERSYDLTGLKPGTEYFVIIWGVKGGETSAPLSAIFTT
notes: FN3 domain
B5: P282DR9P1359_F6 (designed binder)
chain: B4 chain with W32D, S34A, P40T, D41T, I70V, E78D, T79H
notes: FN3 domain
B6: P282DR9P1359_E3 (designed binder)
chain: B4 chain with W32A, S34A, W38L, P40L, D41G, W72Y, E78V, T79E, A81F
notes: FN3 domain
B7: P282DR9P1359_E11 (designed binder)
chain: B4 chain with W32Y, D41V, F68W, W72Y, E78A, T79I, A81T
notes: FN3 domain
B8: P282DR9P1359_C11 (designed binder)
chain: B4 chain with W32K, S34A, W38F, D41P, F68Y, W72I, E78T, T79D, A81W
notes: FN3 domain
B9: P282DR9P1359_E5 (designed binder)
chain: B4 chain with W32A, P40V, D41P, W72Y, E78L, T79Y
notes: FN3 domain
B10: P282DR9P1359_F3 (designed binder)
chain: B4 chain with W32Y, S34T, P40V, D41Q, F68W, W72Y, E78T, T79E, A81E
notes: FN3 domain
B11: P282DR9P1359_D12 (designed binder)
chain: B4 chain with W32R, S34A, W38T, P39A, P40T, D41W, W72Y, E78F, T79E
notes: FN3 domain
B12: P282DR9P1359_A12 (designed binder)
chain: B4 chain with D25E, W32Q, S34A, D41P, G42R, I70V, W72Q, T79I, A81W
notes: FN3 domain
B13: P282DR9P1359_A8 (designed binder)
chain: B4 chain with W32R, S34A, P40V, D41Q, W72Y, T79L, A81P
notes: FN3 domain
B14: P282DR9P1359_C12 (designed binder)
chain: B4 chain with W32Y, P40V, D41P, F68W, I70V, W72Y, E78A, T79L, A81V
notes: FN3 domain
B15: P282DR9P1359_C10 (designed binder)
chain: B4 chain with W32A, S34V, P40T, F68A, I70F, E78N, T79Q, A81W
notes: FN3 domain
B16: P282DR9P1359_F7 (designed binder)
chain: B4 chain with W32A, S34A, D41Q, I70V, W72Y, E78S, T79Y
notes: FN3 domain
B17: P282DR9P1359_E8 (designed binder)
chain: B4 chain with W32Q, S34A, P40V, D41I, F68W, W72Q, E78Y, A81W
notes: FN3 domain
B18: P282DR9P1359_E6 (designed binder)
chain: B4 chain with S34A, P40V, D41Q, I70V, W72Q, E78T, T79P, A81W
notes: FN3 domain
B19: P282CR9P1358_F11 (designed binder)
chain: LPAPKNLVVSRVTEDSARLSWTAPDAAFDSFLIAYPEWPIFEGEAIVLTVPGSERSYDLTGLKPGTEYFVVIYGVKGGEQSSPLSAIFTT
notes: FN3 domain
B20: P282DR9P1359_C5 (designed binder)
chain: B19 chain with L32W, A34T, I40D, F41P, E42G, Q80I, S81Y
notes: FN3 domain
B21: P282DR9P1359_E2 (designed binder)
chain: LPAPKNLVVSRVTEDSARLSWTAPDAAFDSFNIFYPEIVTWGEAIVLTVPGSERSYDLTGLKPGTEYWVNIVGVKGGDNSWPLSAIFTT
notes: FN3 domain
B22: P282DR9P1359_F11 (designed binder)
chain: B21 chain with N32D, I38L, V39P, T40I, W41H, V72T, N79F
notes: FN3 domain
B23: P282DR9P1359_G4 (designed binder)
chain: LPAPKNLVVSRVTEDSARLSWTAPDAAFDSFEIAYPEWPPPGEAIVLTVPGSERSYDLTGLKPGPEYFVVIQGVKGGDPSFPLSAIFTTGGNHHHHH
notes: FN3 domain

Columns and labels:
[1] = biological target: T1, In house human CD8A-Fc (human, UniProt P01732 22-182, limits assumed); test: SPR (ProteOn), captured hCD8A-Fc
T1 construct: Captured on goat anti-human Fc on a ProteOn GLC chip; also called hCD8A-Fc; recombinant human CD8 alpha; not shown: linker with flag (and polyhistidine) tag and Fc of human IgG1
T1 sequence (P01732 22-182 limits assumed): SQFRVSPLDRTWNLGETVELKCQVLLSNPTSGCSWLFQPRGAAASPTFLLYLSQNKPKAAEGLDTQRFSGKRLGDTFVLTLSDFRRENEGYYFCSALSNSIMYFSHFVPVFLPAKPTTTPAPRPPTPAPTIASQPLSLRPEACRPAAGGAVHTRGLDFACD
Experimental: Purified anti-CD8A FN3 domains were subjected to off-rate analysis using a Proteon surface plasmon resonance instrument in order to pick clones with the slowest off-rates for further characterization.
The immobilized GAH-Fc IgG densities averaged about 6000 Response Units (Ru) with less than 1% variation among different channels. In house human CD8A-Fc was captured in vertical orientation at 3 different ligand densities, 10, 5, 2.5 μg/ml for 5 minutes at 30 ul/minute flowrate. All FN3 domains were normalized to a 3 μM concentration, and tested for binding in horizontal orientation. All 6 analyte channels were used for FN3 domains to maximize the screening throughput. The dissociation phase was monitored for 15 minutes at a flow rate of 100 μl/min using PBST as running buffer. […] Data analyses were performed using Bio-Rad ProteOn Manager software (version 3.1.0.6). Raw data were double referenced by subtraction of the interspot (empty chip surface, no protein immobilized or captured) signals to correct the non-specific binding of the FN3 domain to the pre-coated GAH-Fc IgG surface, followed by a double correction using empty channel L6 where no hCD8A-Fc was captured. The processed binding data were locally fit to a 1:1 simple Langmuir binding model to extract the koff for each FN3 domain binding to captured hCD8A-Fc.

[2] = biological target: T2, cynomolgus monkey CD8A on primary cynomolgus monkey CD8+ T cells (cynomolgus monkey, UniProt P01732 23-235 (human entry)); test: flow cytometry, cyno CD8+ T cells, 2 uM FN3
T2 construct: also called Cyno CD8alpha
T2 sequence (P01732 other isoform, or with tags, fused parts or gaps limits assumed): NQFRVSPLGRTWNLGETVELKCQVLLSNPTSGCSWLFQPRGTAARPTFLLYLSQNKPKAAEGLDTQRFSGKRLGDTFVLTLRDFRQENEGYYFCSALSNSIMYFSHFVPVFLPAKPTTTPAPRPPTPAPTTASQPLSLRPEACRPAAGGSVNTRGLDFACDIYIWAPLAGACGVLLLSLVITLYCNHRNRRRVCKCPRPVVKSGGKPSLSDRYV
Experimental: (§1) Binding of the 190 ELISA hits to human and cynomologous monkey primary CD8 T cells was assessed by flow cytometry. The FN3 domain molecules were diluted to 2 μM and 0.2 μM in PBS and incubated with human or cynomologous monkey CD8+ T cells in 96-well format. After 1 hour at 4 C, the cells were washed once with PBS and then resuspended with an anti-FN3 domain antibody (PAB25) solution. Following this incubation, the cells were washed twice with PBS and a PE conjugated secondary antibody and a viability dye were added. Finally, cells were washed and resuspended in PBS for flow cytometric analysis using a BD Canto Instrument. Cells were gating on live cells and median fluorescence intensity of the bound Centyrins (PE channel) was calculated using Cytobank software.

[3] = biological target: T3, human CD8 alpha (CD8A) on primary human CD8+ T cells (human, UniProt P01732 22-235); test: flow cytometry, human CD8+ T cells, 2 uM FN3
T3 construct: whole, on cells; also called hCD8A
T3 sequence (P01732 22-235): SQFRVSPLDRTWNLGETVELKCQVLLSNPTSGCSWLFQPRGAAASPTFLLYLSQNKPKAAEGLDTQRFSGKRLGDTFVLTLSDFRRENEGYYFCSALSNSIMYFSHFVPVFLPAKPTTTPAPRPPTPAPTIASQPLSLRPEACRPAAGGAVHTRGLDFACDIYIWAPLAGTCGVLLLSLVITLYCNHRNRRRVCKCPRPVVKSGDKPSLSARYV
Experimental: as §1

[4] = biological target: T2, cynomolgus monkey CD8A on primary …; test: flow cytometry, cyno CD8+ T cells, 0.2 uM FN3
Experimental: as §1

[5] = biological target: T3, human CD8 alpha (CD8A) on primary human …; test: flow cytometry, human CD8+ T cells, 0.2 uM FN3
Experimental: as §1

| Binder | koff [1] | Cyno T-cell Binding 2 uM (MFI) [2] | Human T-cell Binding 2 uM (MFI) [3] | Cyno T-cell Binding 0.2 uM (MFI) [4] | Human T-cell Binding 0.2 uM (MFI) [5] |
| --- | --- | --- | --- | --- | --- |
| B1 | 0.000722 s⁻¹ | 38200 MFI | 18400 MFI | 4030 MFI | 3050 MFI |
| B2 | 0.000754 s⁻¹ | 83900 MFI | 38400 MFI | 22800 MFI | 8760 MFI |
| B3 | 0.000638 s⁻¹ | 60900 MFI | 22200 MFI | 4470 MFI | 2730 MFI |
| B4 | 0.000637 s⁻¹ | 85700 MFI | 24400 MFI | 13700 MFI | 3070 MFI |
| B5 | 0.000389 s⁻¹ | 73200 MFI | 19900 MFI | 10700 MFI | 3780 MFI |
| B6 | 0.00263 s⁻¹ | 52400 MFI | 4310 MFI | 1620 MFI | 349 MFI |
| B7 | 0.000265 s⁻¹ | 104000 MFI | 40600 MFI | 33100 MFI | 7580 MFI |
| B8 | 0.00216 s⁻¹ | 19900 MFI | 18200 MFI | 457 MFI | 1290 MFI |
| B9 | 0.00101 s⁻¹ | 81200 MFI | 24100 MFI | 13600 MFI | 1950 MFI |
| B10 | 0.00106 s⁻¹ | 48900 MFI | 6340 MFI | 3080 MFI | 646 MFI |
| B11 | 0.00193 s⁻¹ | 37100 MFI | 4540 MFI | 1750 MFI | 542 MFI |
| B12 | 8.12e-05 s⁻¹ | 88000 MFI | 32200 MFI | 15500 MFI | 5950 MFI |
| B13 | 0.000638 s⁻¹ | 70300 MFI | 21100 MFI | 7770 MFI | 2110 MFI |
| B14 | 0.000978 s⁻¹ | 66500 MFI | 15100 MFI | 3640 MFI | 944 MFI |
| B15 | 0.000991 s⁻¹ | 98500 MFI | 27800 MFI | 15100 MFI | 2880 MFI |
| B16 | 0.000365 s⁻¹ | 96500 MFI | 38300 MFI | 26300 MFI | 6930 MFI |
| B17 | 0.00119 s⁻¹ | 81000 MFI | 26100 MFI | 16900 MFI | 2920 MFI |
| B18 | 0.00171 s⁻¹ | 61700 MFI | 20500 MFI | 5060 MFI | 1260 MFI |
| B19 | 0.00135 s⁻¹ | 62400 MFI | 6420 MFI | 6580 MFI | 749 MFI |
| B20 | 0.000174 s⁻¹ | 95700 MFI | 31000 MFI | 14200 MFI | 5550 MFI |
| B21 | 0.00206 s⁻¹ | 77700 MFI | 28500 MFI | 10900 MFI | 4820 MFI |
| B22 | 0.000554 s⁻¹ | 86700 MFI | 35600 MFI | 16100 MFI | 6590 MFI |
| B23 | 0.000517 s⁻¹ | 78600 MFI | 26600 MFI | 6010 MFI | 2670 MFI |
